Results: the supplement of paper PMC9170038

Test system: MS2 coat protein
Assay: apparent KD of MS2 coat protein; designed switch direction (-1 OFF switch, 1 ON switch): -1; higher = weaker reporter binding
Outline: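 Transcription of designed RNA switches on Illumina chips was done by stalled E. coli RNA polymerase. SNAP-549-labelled MS2 coat protein was then titrated in doubling steps from 0.7 or 1.5 nM to 3 µM, with steps of 0.8–1.5 h at the lowest and 10–20 min at the highest concentration. The per-design median over clusters of curve-fitted normalised fluorescence is reported as apparent KD.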

[1] = Eterna round: R95, input ligand: microRNA oligo, concentration not stated
[2] = input ligand: microRNA oligo, concentration not stated
[3] = Eterna round: R95, input ligand: FMN 200 uM
[4] = Eterna round: R95, input ligand: none

Row | Sequence | apparent KD of MS2 coat protein (input ligand: FMN 200 uM) | apparent KD of MS2 coat protein (input ligand: none) | also measured
1 | GUGUGACAUGAGGAUCACCCAUGUGAGGAUAUCAUGCUUCGUAGUAAACUACGAAGUGUGAGAAGGCACAUAAC [Omei Ex1 E8] (Eterna round: R97, puzzle: Exclusion 1) | 678 nM | 122 nM | –
2 | GUGUGACAUGAGGAUCACCCAUGUGAGGAUAUUUAUGUUUGGUUGUUUAGUUGGGCGUGGAGAAGGCGCGUGCG [19% As] (Eterna round: R97, puzzle: Exclusion 1) | 65.6 nM | 85.1 nM | –
3 | GUGUUGUCAGGAUAUCUUACAUAACAAUCGUUGUUACCAUUGGAGAAGGGACAUGAGGAUCACCCAUGUUAACC [tap-tap-tappy46] (Eterna round: R97, puzzle: Exclusion 4) | 18.9 nM | 19.6 nM | –
4 | GUUAAACAUGAGGAUCACCCAUGUAAGGAUAUGCUGCGGUCGAGAUGAAGUGAAUGCAGCAGAAGGUACAAUUG [Mat - Mod of JL D53] (puzzle: Exclusion 1) | – | – | apparent KD of MS2 coat protein [1]: 148 nM
5 | GUUAACGAUGAGGAUAUAUGAUAUCAAAGCAUCAUAGAAGGCAUCACAUGAGGAUCACCCAUGUGAUCUUCUUG [Mat - Exclusion 6 - JL Mod - D27] (Eterna round: R97, puzzle: Exclusion 6) | 120 nM | 29.4 nM | –
6 | GUUAACGUAGGAUAUUAGUACAUGAACAUGAGGAUCACCCAUGUGAGGUGGGUCUAAGAAUAAGAAGGGCGAAGAA [EX5 #26] (Eterna round: R97, puzzle: Exclusion 5) | 317 nM | 312 nM | –
7 | GUUACACAUGAGGAUCACCCAUGUAAGGAUAUGCUGCGGUCGCGCUGACGUGACUGCAGCAGAAGGUACAAAUG [Mat - Mod of JL D56] (puzzle: Exclusion 1) | – | – | apparent KD of MS2 coat protein [1]: 59.3 nM
8 | GUUAUGUCAGGAUAUGCUAAUGAUGAGUGCUCAGACAUGAUGCAGAAGGGACAUGAGGAUCACCCAUGUACUAA [EX4 #11] (Eterna round: R97, puzzle: Exclusion 4) | 116 nM | 36.1 nM | –
9 | GUUCUUCCUGUAAGGAUAUCCAUGUGUCGGUUUAUGGAGAAGGUACAUGAGGAUCACCCAUGUCACCCGCGUUA (Eterna round: R97, puzzle: Brourd's mod of Exclusion 4) | 45.9 nM | 18.5 nM | –
10 | GUUGCGUUUGUGAGGAUAUGCUGGUCCUUGGUUCGGCAGAAGGCACAUGAGGAUCACCCAUGUGGUGUCGUUCC [salish99_Bmod_ex4_051] (puzzle: Brourd's mod of Exclusion 4) | – | – | apparent KD of MS2 coat protein [1]: 13.3 nM
11 | GUUGCGUUUGUGAGGAUAUGCUGGUCCUUGGUUCGGCAGAAGGCACAUGAGGAUCACCCAUGUGGUGUUGUUCC [salish99_Bmod_ex4_052] (puzzle: Brourd's mod of Exclusion 4) | – | – | apparent KD of MS2 coat protein [1]: 90.5 nM
12 | GUUGUGUAAGGAUAUGCCUGGCCGUGAGGCCAGAUUGAGUGGCAGAAGGUACAUGAGGAUCACCCAUGUACGGG [salish99_ex4_4_003] (Eterna round: R97, puzzle: Exclusion 4) | 145 nM | 26.8 nM | –
13 | GUUGUUUAUGUAGGAUAUGCAAGGCGAGCCUAAGCAGAAGGACAUGAGGAUCACCCAUGUAUUGCGGUCUGCGUUCAGAUCGCU [salish99_ExNG1_r4_015] (Eterna round: R96, puzzle: Exclusion NG 1) | 164 nM | 25.9 nM | apparent KD of MS2 coat protein [2]: 17.3 nM
14 | GUUGUUUAUGUAGGAUAUGCCUGGCGUGCCUUUGCAGAAGGACAUGAGGAUCACCCAUGUAACAUGAGGCUCACCCAUGUCGCG [salish99_ExNG1_r04_109] (Eterna round: R96, puzzle: Exclusion NG 1) | 438 nM | 277 nM | apparent KD of MS2 coat protein [2]: 185 nM
15 | GUUUCACAUGAGGAUCACCCAUGUGAGGAUAUAGAUUUGUUAGUCGUAAUUGAUAGAUUUAGAAGGCGCGUGAU [JR_Exc1_Sub002] (Eterna round: R97, puzzle: Exclusion 1) | 27.4 nM | 25.2 nM | –
16 | UAACACCGAGGAUAUACAUUUCUCAUAAGGUGCAAAACCGCACAUGAGGAUCACCCAUGUAGAAGGCGGCAAAU [Enrabeange] (puzzle: Exclusion 2) | – | – | apparent KD of MS2 coat protein [3]: 32 nM; apparent KD of MS2 coat protein [1]: 10.5 nM; apparent KD of MS2 coat protein [4]: 14.8 nM
17 | UAACAUGUACAAGGAUAUCAGCACGUUUAGUGCUGAGAAGGUGUAACAUGAGGAUCACCCAUGUAGAUCAUUAAUUAAUUAAUU [ENG1/9-B2] (Eterna round: R96, puzzle: Exclusion NG 1) | 244 nM | 102 nM | apparent KD of MS2 coat protein [2]: 120 nM

Row | Sequence | apparent KD of MS2 coat protein (input ligand: FMN 200 uM) | apparent KD of MS2 coat protein (input ligand: none) | also measured
18 | UAAGAGUGAGGAUAUACGUCGCUGGUCUGGAUGGACGCAUGACAUGAGGAUCACCCAUGUAGAAGGCACAAAAC [Enxela Mod 11 - Jieux - Exclusion 2] (Eterna round: R97, puzzle: Exclusion 2) | 153 nM | 35 nM | –
19 | UAAGAUUAUUGAGGAUAUGGUAAUUUUUAUUAACCAGAAGGCAAACUCAACAUGAGGAUCACCCAUGUAUAAAGGGUAUUAGUU [JR_ExcNG1_Sub096] (Eterna round: R96, puzzle: Exclusion NG 1) | – | – | apparent KD of MS2 coat protein [2]: 51.2 nM
20 | UAAGGGUGCGUAGGAUAUCGCGGCCGAAUAAAGCGAGAAGGACGCCCGAAUGGGUCGUCCAACAUGAGGAUCACCCAUGUAAAC [Soerre] (Eterna round: R96, puzzle: Exclusion NG 1) | 140 nM | 50.2 nM | apparent KD of MS2 coat protein [2]: 36.5 nM
21 | UAAGUGUGAGGAUAUGGUAAAGAUAAGAUGAUGAAAGAACUCCAGAAGGCACAUGAGGAUCACCCAUGUAGAUG [JL-ex4-2.11 Jieux mod] (puzzle: Exclusion 4) | – | – | apparent KD of MS2 coat protein [1]: 35.3 nM
22 | UAAUAAAGUGUGAGGAUAUGCUGGUCCAUAGAUCAGCAGAAGGCACAUGAGGAUCACCCAUGUAAUAUAUAAAU [Mat - Exclusion 4 - JL Mod - D57] (Eterna round: R96, puzzle: Brourd's mod of Exclusion 4) | – | – | apparent KD of MS2 coat protein [2]: 23.7 nM
23 | UAAUAAAGUGUGAGGAUAUGCUGGUCCAUAGAUCAGCAGAAGGCACAUGAGGAUCACCCAUGUAAUAUAUAAAU [Mat - Exclusion 4 - JL Mod - D57] (puzzle: Brourd's mod of Exclusion 4) | – | – | apparent KD of MS2 coat protein [3]: 199 nM; apparent KD of MS2 coat protein [1]: 27.5 nM; apparent KD of MS2 coat protein [4]: 24.5 nM
24 | UAAUAACAAGCGAGAUCCUACAUGAGGAUCACCCAUGUGCUCGUCUUAUAAAGUACUAUCACGAAAGUGAUAGUACA [Mat - Sensor v3 - turn-off var 1 - Eli Mod - D61] (puzzle: Sensor v3, turn-off variant 1) | – | – | apparent KD of MS2 coat protein [3]: 17.1 nM; apparent KD of MS2 coat protein [1]: 49.5 nM; apparent KD of MS2 coat protein [4]: 19.2 nM
25 | UAAUAAUAGUGAGGAUAUAGUUAUUAUAAUAUACUAGAAGGUACACAUGAGGAUCACCCAUGUUUUAUAAUUUGUAAUUUAAAU [4th something] (Eterna round: R96, puzzle: Exclusion NG 1) | – | – | apparent KD of MS2 coat protein [2]: 18.4 nM
26 | UAAUACAAGCAAAGAUCUUACAUGAGGAUCACCCAUGUGCUCGUCUUAUAAAGUACUAUCACGAAAGUGAUAGUACU [Mat - Sensor v3 - turn-off var 1 - Eli Mod - D94] (puzzle: Sensor v3, turn-off variant 1) | – | – | apparent KD of MS2 coat protein [3]: 29.3 nM; apparent KD of MS2 coat protein [1]: 202 nM; apparent KD of MS2 coat protein [4]: 34.6 nM
27 | UAAUAUCUGAUUCUUGAGAUACAUGAGGAUCACCCAUGUUCACAGGAUAUUGAUUUUAAGAAAAGCAAGAAGGGUGAAUCAUUU [JR_ExcNG3_Sub041] (Eterna round: R96, puzzle: Exclusion NG 3) | 26.9 nM | 22.9 nM | apparent KD of MS2 coat protein [2]: 16.5 nM
28 | UAAUGUAUAUAGGAUAUCUAGCUGGAUACAGCUAGAGAAGGAUGUACAUGAGGAUCACCCAUGUAAAUCAGUGA [Ex6/14-B3] (Eterna round: R97, puzzle: Exclusion 6) | 206 nM | 39.3 nM | –
29 | UAAUUCGUAGGAUAUACAAAGGGAGAAUGAUUGCGGUCCUGACAUGAGGAUCACCCAUGUAGAAGGAUGAGGGU [Eternabot (L1) Solution 41] (Eterna round: R97, puzzle: Exclusion 2) | 91.9 nM | 88.6 nM | –
30 | UACACCACAUGAGGAUCAAACAUGAGGAUCACCCAUGUAUAACAAGCUUUUUGCUCGUCUUAUAAAUAUGUGGUGUA [Electric Eye 5 - Jieux - Sensor, turn-off variant 1] (Eterna round: R97, puzzle: Sensor, turn-off variant 1) | 14.2 nM | 14.5 nM | –
31 | UACACGGGAGGAUAUACGUAGAUGCAGGUUCGUGUGGUGCUACAUGAGGAUCACCCAUGUAGAAGGCCCAACGU [Mod 4 R3 JL-ex2-2.29] (Eterna round: R97, puzzle: Exclusion 2) | 26.3 nM | 23.4 nM | –
32 | UACACGGUAGGAUAUACGUAGAUGCAGGUUCGUGUGGUGCUACAUGAGGAUCACCCAUGUAGAAGGGCCAACGU [Mod 6 R3 JL-ex2-2.29 - Jieux - Exclusion 2] (Eterna round: R97, puzzle: Exclusion 2) | 15.1 nM | 13.1 nM | –
33 | UACACUGCAUGAGGAUCAAACAUGAGGAUCACCCAUGUAUAGCAAGCUUUUUGCACGUCUUAUAAUUAUGUAGUGUA [Electric Eye 13 - Jieux - Sensor, turn-off variant 1] (Eterna round: R97, puzzle: Sensor, turn-off variant 1) | 15.1 nM | 16.2 nM | –
34 | UACAUGAGGAUCACCCAUGUUUUGUCGUGUAUGGUAUUUAUCUAGGAUAUCAAGUUAUUUAUUUAUGAGAAGGAGAAUAUUAAU [JMF's solution 10] (Eterna round: R96, puzzle: Exclusion NG 3) | 40 nM | 37.3 nM | apparent KD of MS2 coat protein [2]: 30.7 nM
